14 molecules from patent US20200390902A1, “Antibody-Drug Conjugates Targeted at Human Aspartyl-(Asparaginyl)-B-Hydroxylase (HAAH)” (Panacea Pharmaceuticals, Inc., priority 2017, published 2020) can be followed below.

For orientation: Kd means the equilibrium constant for the complex coming apart. Low readings indicate tighter binding, high ones weaker binding.

One test deals with H460 lysate. Kind of test: ELISA on plates coated with H460 lysate, percent of loading amount bound. On the technique in general: In an ELISA, binding on a coated surface is turned into a signal by an enzyme label.
For test [1], the target named is T1, HAAH catalytic domain (human, UniProt Q12797).
T1 sequence: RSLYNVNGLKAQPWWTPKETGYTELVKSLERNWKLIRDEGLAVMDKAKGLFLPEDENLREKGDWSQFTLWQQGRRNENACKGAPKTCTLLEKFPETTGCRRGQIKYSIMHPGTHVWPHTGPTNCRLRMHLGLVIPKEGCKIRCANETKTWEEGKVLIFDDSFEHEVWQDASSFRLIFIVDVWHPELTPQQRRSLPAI
As to the kind of experiment: ELISA on plates coated with HAAH catalytic domain. The protocol:
The catalytic domain of HAAH (HAAH-cat) is exposed at the surface of HAAH-expressing cancer cells. The binding of SNS622-MC-DM1 at different drug-antibody ratio (DAR) and pH to HAAH-cat was measured using IgG1λ as control. The plates were coated with HAAH by treating with […] HAAH catalytic domain overnight. Following blocking with 1% Non-Fat Dry Milk in PBS for one hour, the plates were incubated for 45 minutes at 37° C. with 11.1 mg/ml IgG1λ; 9.6 mg/ml SNS622; 4.8 mg/ml SNS622-MC-DM1 at DAR 2.5, pH 7.0; 5.9 mg/ml SNS622-MC-DM1 at DAR 2.5, pH8.0; 6.1 mg/ml SNS622-DM1 at DAR 5.0, pH 7.0; 5.7 mg/ml SNS622-MC-DM1 at DAR 5.0, pH8.0; 4.1 mg/ml SNS622-DM1 at DAR 10.0, pH7.0; or 4.4 mg/ml SNS622-MC-DM1 at DAR 10.0, pH8.0. Following 5 PBS rinses the plates were incubated with 1:100 goat anti-human IgG (8)-HRP for 30 minutes at 37° C., Following five PBS rinses TMB substrate was added, and after a 15-minute incubation at room temperature, Stop solution was added to terminate the reactions. The plates were read at 450 nm using a 96-well plate reader (ELx808, BioTek). The binding results are shown below in Table VI

Test [2] concerns the target T1, HAAH catalytic domain. Kind of test: ELISA on plates coated with HAAH catalytic domain; [Protein] 11.1 mg/ml.
The target in test [3] is Human aspartyl (asparaginyl) β-hydroxylase (HAAH) (human) (UniProt Q12797).
In test [4] the target is T2, Human aspartyl (asparaginyl) β-hydroxylase (HAAH) (human, UniProt Q12797).
T2 sequence: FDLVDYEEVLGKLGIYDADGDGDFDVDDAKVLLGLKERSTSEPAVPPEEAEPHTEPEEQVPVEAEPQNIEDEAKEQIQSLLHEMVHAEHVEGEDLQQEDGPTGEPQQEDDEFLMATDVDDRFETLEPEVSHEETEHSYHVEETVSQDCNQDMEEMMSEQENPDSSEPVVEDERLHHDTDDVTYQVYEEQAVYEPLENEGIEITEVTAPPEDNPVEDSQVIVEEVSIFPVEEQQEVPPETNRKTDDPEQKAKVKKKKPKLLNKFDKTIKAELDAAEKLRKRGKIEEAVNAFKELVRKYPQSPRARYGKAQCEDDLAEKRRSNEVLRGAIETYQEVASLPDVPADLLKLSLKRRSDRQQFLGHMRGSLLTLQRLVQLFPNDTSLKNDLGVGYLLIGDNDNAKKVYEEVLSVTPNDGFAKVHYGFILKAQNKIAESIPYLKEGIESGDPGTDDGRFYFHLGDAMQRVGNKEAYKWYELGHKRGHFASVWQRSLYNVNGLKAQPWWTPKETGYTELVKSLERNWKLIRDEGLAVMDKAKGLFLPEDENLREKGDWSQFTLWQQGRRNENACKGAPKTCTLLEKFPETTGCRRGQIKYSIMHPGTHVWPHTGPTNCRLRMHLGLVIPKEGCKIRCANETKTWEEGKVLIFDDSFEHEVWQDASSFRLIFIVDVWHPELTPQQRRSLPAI
Kind of test: immunoassay on fixed H460 cells; printed as 'binding affinities'.

Test [5] concerns the target Human aspartyl (asparaginyl) β-hydroxylase (HAAH) (human) (UniProt Q12797). The source holds these as a separate data set.
The target is the same in test [6]. This is another data set of the same source.
Test [7] has the same target. The source holds these as a separate data set.
Test [8] shares this target. The source holds these as a separate data set.
In test [9] the target is T2, Human aspartyl (asparaginyl) …. Kind of test: cell-based or functional assay.

“IgG1λ (non-specific monoclonal antibody)”: in the test with H460 lysate, the Percent binding was < 0.002%. The % Binding with HAAH catalytic domain [1] worked out at 0.01%. For the same molecule, in the test with HAAH catalytic domain [2], the [Average]* was < 0.001 mg/mL.

For “IgG1λ-MC-DM1 (non-specific ADC) (antibody)”, the Percent binding in the test with H460 lysate is < 0.002%.

B1: SNS622-MC-DM1 (antibody, V domains shown)
VH: QVQLQQSGPGLVKPSQTLSLTCAISGDSVSSNSAAWNWIRQSPSRGLEWLGRTYYRSKWYNDYAVSVKSRITINPDTSKNQFSLQLNSVTPEDTAVYYCARTGYSSSWVVNFDYWGQGTLVTVSS
VL: QPVLTQSPSASGTPGQRVTISCSGSSSNIGSNYVYWYQQLPGTAPKLLIYKNNQRPSGVPDRFSGSKSGTAASLAISGLQSEDEADYYCAAWDDSLRGYVFGTGTKLTVLG
modifications: MC-DM1 (maleimidocaproyl-mertansine) on cysteine thiols of reduced disulfide bonds, positions not given; MC-DM1 (maleimidocaproyl-mertansine) on cysteine thiols of reduced disulfide bonds, positions not given
In turn, B1 showed a Percent binding with H460 lysate of 107%. In test [3], this molecule showed an IC50 of MTS, H460 cells, 72 h of 64 nM and an LC50 of LDH, H460 cells, 72 h of 36 nM. For the same molecule, the Kd in test [4] is ~0.1 nM. In addition, the EC50, H460 cell viability, MTS assay, 24 h in test [5] amounted to 15 nM. In [6], the LDH release, H460 cells, 32 nM, 72 h (× (over untreated H460 cells)) came to 39. Also, in [7], the MTS assay, MIA-PaCa-2 ASPH cells, 10, 20 or 50 nM, 48 h (% reduction of relative absorbance) worked out at 16.

B2: SNS622-MC-PEG4-vc-PAB-DMEA-DUO (antibody, V domains shown)
VH: B1 VH
VL: B1 VL
modifications: MC-PEG4-vc-PAB-DMEA-duocarmycin on cysteine thiols of reduced disulfide bonds, positions not given; reaction DAR 2.2:1, final DAR 1.92:1; MC-PEG4-vc-PAB-DMEA-duocarmycin on cysteine thiols of reduced disulfide bonds, positions not given
Turning to B2, in [4], the Kd is ~0.5 nM. Moreover, the IC50, MOLM-14 cell viability, MTS assay, 24 h in [8] was 60 nM. In [5], this molecule returned an EC50, H460 cell viability, MTS assay, 24 h of 300 nM.

B3: SNS622-DM1B1 (antibody, V domains shown)
VH: B1 VH
VL: B1 VL
modifications: MC-DM1 on cysteine thiols of reduced disulfide bonds, positions not given; reaction DAR 5:1, pH 7, final DAR 3.22; MC-DM1 on cysteine thiols of reduced disulfide bonds, positions not given
As for B3, in the test with HAAH catalytic domain [1], the “% Binding” value came out at 81.2%.

B4: SNS622-DM1B2 (antibody, V domains shown)
VH: B1 VH
VL: B1 VL
modifications: MC-DM1 on cysteine thiols of reduced disulfide bonds, positions not given; reaction DAR 5:1, pH 8, final DAR 3.36; MC-DM1 on cysteine thiols of reduced disulfide bonds, positions not given
For B4, the “% Binding” value with HAAH catalytic domain [1] is 89.5%.

B5: SNS622-MC-MMAE (antibody, V domains shown)
VH: B1 VH
VL: B1 VL
modifications: MC-MMAE on cysteine thiols of reduced disulfide bonds, positions not given; reaction DAR 10:1 gives final DAR 5.72 (also made at 2.5:1 and 5:1); MC-MMAE on cysteine thiols of reduced disulfide bonds, positions not given
B5: the “IC50 of MTS, H460 cells, 72 h” value in test [9] came out at 48 nM.

B6: SNS622 (antibody, V domains shown)
VH: B1 VH
VL: B1 VL
B6 came in with a Percent binding with H460 lysate of 92%. The “% Binding” value with HAAH catalytic domain [1] turned out to be 97.6%.

B7: SNS622-DM1C2 (antibody, V domains shown)
VH: B1 VH
VL: B1 VL
modifications: MC-DM1 on cysteine thiols of reduced disulfide bonds, positions not given; reaction DAR 10:1, pH 8, final DAR 5.81; MC-DM1 on cysteine thiols of reduced disulfide bonds, positions not given
B7: in the test with HAAH catalytic domain [1], the “% Binding” value was determined as 80.5%.

B8: SNS622-MC-vc-PAB-MMAE (antibody, V domains shown)
VH: B1 VH
VL: B1 VL
modifications: MC-vc-PAB-MMAE on cysteine thiols of reduced disulfide bonds, positions not given; reaction DAR 10:1, final DAR 6.31; MC-vc-PAB-MMAE on cysteine thiols of reduced disulfide bonds, positions not given
Regarding B8, the Kd in test [4] is ~0.2 nM. In addition, the IC50, MOLM-14 cell viability, MTS assay, 24 h in test [8] was determined as 50 nM. In addition, the EC50, H460 cell viability, MTS assay, 24 h in test [5] stood at 60 nM.

B9: SNS622-MC-vc-PAB-DM1 (antibody, V domains shown)
VH: B1 VH
VL: B1 VL
modifications: MC-vc-PAB-DM1 on cysteine thiols of reduced disulfide bonds, positions not given; reaction DAR 10:1 gives final DAR 6.56 (also made at 2.5:1 and 5:1); MC-vc-PAB-DM1 on cysteine thiols of reduced disulfide bonds, positions not given
As to B9, the “IC50 of MTS, H460 cells, 72 h” value in [9] was determined as 123 nM.

B10: SNS622-DM1A2 (antibody, V domains shown)
VH: B1 VH
VL: B1 VL
modifications: MC-DM1 on cysteine thiols of reduced disulfide bonds, positions not given; reaction DAR 2.5:1, pH 8, final DAR 2.10; MC-DM1 on cysteine thiols of reduced disulfide bonds, positions not given
In the case of B10, in the test with HAAH catalytic domain [1], the “% Binding” value is 84.8%.

B11: SNS622-DM1C1 (antibody, V domains shown)
VH: B1 VH
VL: B1 VL
modifications: MC-DM1 on cysteine thiols of reduced disulfide bonds, positions not given; reaction DAR 10:1, pH 7, final DAR 5.08; MC-DM1 on cysteine thiols of reduced disulfide bonds, positions not given
As for B11, in the test with HAAH catalytic domain [1], the “% Binding” value amounted to 11.7%.

B12: SNS622-DM1A1 (antibody, V domains shown)
VH: B1 VH
VL: B1 VL
modifications: MC-DM1 on cysteine thiols of reduced disulfide bonds, positions not given; reaction DAR 2.5:1, pH 7, final DAR 2.00; MC-DM1 on cysteine thiols of reduced disulfide bonds, positions not given
Consider B12, for which the “% Binding” value with HAAH catalytic domain [1] amounted to 75.1%.
